Data reported in publication PMC2887959.
Where two headings read alike, the source gives them in different places.

How the values were obtained:
Assay in all cases: fluorescence anisotropy
[1] = molecular target: T1, IN deltaC (IN1-213) (HIV-1, UniProt P04585 1148-1360)
[2] = molecular target: T1, IN deltaC (IN1-213); remark: listed apart in the source
[3] = molecular target: T2, IN catalytic core CC (IN50-213) (HIV-1, UniProt P04585 1197-1360)
[4] = molecular target: T2, IN catalytic core CC (IN50-213); remark: listed apart in the source

B1: U5A/U5B (dsDNA)
DNA 1: GTGTGGAAAATCTCTAGCAGT
DNA 2: ACTGCTAGAGATTTTCCACAC
In the case of B1, the Kd [1] is reported as 64 ± 8 nM, the Kd [2] is reported as 60 ± 4 nM and the Kd [3] is reported as 61 ± 10 nM. For the same binder, the Kd [4] was 53 ± 13 nM.
